The target in experiment [1] is human Neurokinin NK2 receptor (human) (UniProt P21452). The experiment in a line: radio-ligand competition binding (CEREP), reference compound, human receptor in recombinant mammalian cells; radioligand not named.
For experiment [2] the target is unchanged. Nature of the experiment: radio-ligand competition binding (CEREP), second screen, reference compound; radioligand not named.

Chain of human Neurokinin NK2 receptor (human) (P21452 whole entry): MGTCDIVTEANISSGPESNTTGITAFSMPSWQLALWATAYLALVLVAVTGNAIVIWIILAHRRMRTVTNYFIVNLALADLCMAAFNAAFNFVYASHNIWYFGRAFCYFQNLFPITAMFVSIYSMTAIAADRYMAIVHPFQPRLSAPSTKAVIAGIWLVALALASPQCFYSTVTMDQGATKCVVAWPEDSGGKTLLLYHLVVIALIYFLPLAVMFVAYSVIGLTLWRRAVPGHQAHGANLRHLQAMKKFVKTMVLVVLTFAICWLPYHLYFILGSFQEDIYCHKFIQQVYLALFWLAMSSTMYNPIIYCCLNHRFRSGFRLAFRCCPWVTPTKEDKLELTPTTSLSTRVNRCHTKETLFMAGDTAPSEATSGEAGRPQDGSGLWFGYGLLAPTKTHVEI

As to “[Nle10]-NKA(4-10) (from UniProt P20366 101-107) (peptide)”, the IC50 (commonly the concentration that gives 50% inhibition) in experiment [1] turned out to be 9.3 nM; in experiment [2], 9.7 nM.

The record behind these values is patent US20100074852A1.
